Reference: US20180094051A1, “METHOD FOR INHIBITING LYMPHANGIOGENESIS BY ADMINISTRATION OF AN INHIBITOR OF THE CXCL12 PATHWAY” (Tsinghua University, priority 2012, published 2018)
Entries after “also recorded” stand apart in the source; their conditions may differ.

Legend:
chemokine receptor CXCR4 = test: qRT-PCR of chemokine receptor mRNA in VEGF-C-stimulated lymphatic endothelial cells; type: cell-based; conditions: VEGF-C-stimulated mouse lymphatic endothelial cells vs untreated cells
Protocol: The isolation and extraction of total RNA from cells was performed using TRIZOL reagent (purchased from Invitrogen) following the standard operations as described in the reagent instructions. 1 mL of TRIZOL was added to the primary lymphatic endothelial cells (about 1×10^6) collected by centrifugation, repeatedly pipetted up and down for 30 times, and then set aside at room temperature for 5 minutes. After centrifugation at 10,000×g at 4° C. for 15 minutes, the supernatant was […] gently. 0.2 mL of chloroform was added to the supernatant, vortexed vigorously for about 15 seconds, and then set aside at room temperature for 3 minutes. […]
The synthesis of first strand cDNA was performed using a Fermentas kit (RevertAid™ First Strand cDNA Synthesis Kits) according to the standard instructions. […] The reverse transcription product was used in subsequent PCR and fluorescence quantitative RT-PCR, and the rest of the product was stored in a refrigerator at −80° C.
Fluorescence Quantitative Real-Time PCR was performed using a kit from Stratagene (Brilliant II SYBR® Green QRT-PCR Master Mix). The fluorescence quantitative PCR instrument was MX3000P (purchased from Stratagene), the fluorescence dye was SYBR Green, the volume of the reaction system was 20 μL, and the cycle number of the reaction was 40. […]

[1] = system: mouse lymphatic endothelial cells; test: Cell chemotaxis assay (Transwell); type: cell-based; conditions: agent in outer chamber (CXCL12 1, 20, 100 ng/mL; VEGF-C 100 ng/mL), 6 hours
Protocol: The migration ability of mouse lymphatic endothelial cells was assessed using 8-μm-pore Transwell bucket (filter membrane) (purchased from Costar). The transwell bucket was placed into a 24-well plate. Mouse primary lymphatic endothelial cells (mLECs) at passage 2 or 3 in good conditions were selected, and divided into five groups, four parallel samples for each group and approximately 2×10^4 cells for each parallel sample. The cells were digested with trypsin, resuspended in 200 μL of fresh serum-free endothelial cell culture medium (ECM, purchased from Sciencell), and then seeded into the inner chambers of the Transwell bucket. To each outer chamber was added 800 μL of serum-free endothelial cell culture medium mixed with 1 ng/mL, 20 ng/mL, 100 ng/mL of chemokine CXCL12 (purchased from R&D Systems), 100 ng/mL of VEGF-C (purchased from R&D Systems) and PBS control, respectively. The culture plate was placed into an incubator and incubated under 5% CO2 at 37° C. for 6 hours.
After taking out the culture plate, the Transwell bucket was fixed in 4% paraformaldehyde solution for 15 minutes. The Transwell bucket was rinsed twice in PBS, stained with 0.1% crystal violet solution for 30 minutes, and then washed with PBS to remove the non-specifically bound crystal violet. The cells inside Transwell membrane were wiped off gently with medical cotton swabs. Note that the cells on the edge of the membrane should also be wiped off to avoid affecting cell counting. The Transwell bucket was placed under a microscope (Olympus IX71 microscope), and the cells migrated from the outer membrane were observed by microscopy. 8 fields per group were photographed randomly to count the cells.
The migration ability of mouse lymphatic endothelial cells was assessed using 8-μm-pore Transwell bucket (purchased from Costar). The bucket was placed into a 24-well plate. Mouse primary lymphatic endothelial cells (mLECs) at passage 2 or 3 in good conditions were selected, and divided into six groups, four parallel samples for each group, and approximately 2×10^4 cells for each parallel sample. The cells were digested with trypsin and resuspended in 200 μL, of fresh serum-free endothelial cell culture medium (ECM, purchased from Sciencell). The cells were pretreated for 30 minutes with dimethyl sulfoxide (DMSO) as a control, protein kinase B (Akt) antagonist LY294002 (10 μM, purchased from Sigma-Aldrich) and extracellular signal-regulated kinase (Erk) antagonist U0126 (10 μM, purchased from Sigma-Aldrich), respectively, and then seeded into the inner chambers of the Transwell bucket. […] The cells were stained and the number of the migrated cells was counted.
The migration ability of mouse lymphatic endothelial cells was detected by using 8-μm-pore Transwell bucket (purchased from Costar). […]

B1: VEGF-C: Vascular Endothelial Growth Factor C, the major pro-lymphangiogenesis factor; purchased from R&D Systems (protein, UniProt P49767 112-227, looked up)
Vascular endothelial growth …: AHYNTEILKSIDNEWRKTQCMPREVCIDVGKEFGVATNTFFKPPCVSVYRCGGCCNSEGLQCMNTSTSYLSKTLFEITVPLSQGPKPVTISFANHTSCRCMSKLDVYRQVHSIIRR
With B1 the “chemokine receptor CXCR4 mRNA level” value (chemokine receptor CXCR4) was “significantly upregulated by about three times; also recorded: specifically up-regulated the expression of chemokine receptor CXCR4” and the “migration of mouse lymphatic endothelial cells” value [1] was “could promote the migration of mouse lymphatic endothelial cells”.
